Article PMC11389850

Biological target: BbmrR (Brevibacillus borstelensis)
Test: SEC; analytical size-exclusion chromatography, Superdex 200 10/300, 50 mM phosphate buffer, 500 mM NaCl, pH 7.5, 100 uL sample injected; column calibrated with LMW/HMW gel-filtration kits

- stoichiometry N: 2
Substance: BbmrR (natural protein)
